The results in this text go back to publication PMC5472179 (Nature Communications, 2017).

Ends that are not written are not given here. * marks the point of attachment. FITC = O=C1OC2(c3ccc(O)cc3Oc3cc(O)ccc32)c2ccc(NC(=S)*)cc21

Sequences and labels used below:
B2: eVP30_(110–272) (domain or fragment)
chain: GSVEQQLNITAPKDSRLANPTADDFQQEEGPKITLLTLIKTAEHWARQDIRTIEDSKLRALLTLCAVMTRKFSKSQLSLLCETHLRREGLGQDQAEPVLEVYQRLHSDKGGSFEAALWQQWDRQSLIMFITAFLNIALQLPCESSAVVVSGLRTLVPQSDNEE

Series [1] concerns the target B2. Put plainly: fluorescence polarisation. The conditions noted are these: both partners purified. For orientation: In fluorescence polarisation assays a small probe gives low polarisation when free and higher when bound to something large.
The target in series [2] is B2. Description: ITC. The conditions noted are these: both partners purified.
Series [3] concerns the target B2. Description: SEC-MALS. The conditions noted are these: both partners purified. (Size exclusion chromatography separates by hydrodynamic size, large species first.)
The series “SEC-MALS” deals with the molecule itself. Put plainly: SEC-MALS.

As a reminder, the Kd is the equilibrium constant for the complex coming apart. By stoichiometry N is commonly meant a count of units in the complex or per binding partner.

For RTPTVAPPAPVYRDHS [eVP30BP (unlabelled)], in the series with eVP30_(110–272) [1], the binding result was “binds”.

B1: eNP_(600–739) (domain or fragment)
chain: RTPTVAPPAPVYRDHSEKKELPQDEQQDQDHTQEARNQDSDNTQSEHSFEEMYRHILRSQGPFDAVLYYHMMKDEPVVFSTSDGKEYTYPDSLEEEYPPWLTEKEAMNEENRFVTLDGQQFYWPVMNHKNKFMAILQHHQ
As to B1, in the series with eVP30_(110–272) [2], the Kd is 3.75 µM and the “stoichiometry N” value is 0.8. Moreover, in the series with eVP30_(110–272) [3], the “stoichiometry N” value came to 1. Turning to B2, in “SEC-MALS”, the “stoichiometry N” value stood at 2. With {FITC}-RTPTVAPPAPVYRDHS [FITC-eVP30BP], the binding result in the series with eVP30_(110–272) [1] is reported as “binds”.
